In data set [1] the target is T1, H-NS (Escherichia coli K1 (RS218?)) (UniProt P0ACF8).
T1 sequence: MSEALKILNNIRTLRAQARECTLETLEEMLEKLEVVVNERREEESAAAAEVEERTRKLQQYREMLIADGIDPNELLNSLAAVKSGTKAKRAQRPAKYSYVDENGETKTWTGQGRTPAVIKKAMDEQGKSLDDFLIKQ
Put plainly: EMSA. As to conditions: 10 mM Tris pH 7.5, 1 mM EDTA, 100 mM KCl, 0.1 mM DTT, 5% glycerol, 0.01 mg/mL BSA.

For data set [2], the system named is T2, YbdO (Escherichia coli K1 (RS218?)), ORF:f8d494c4.
T2 sequence: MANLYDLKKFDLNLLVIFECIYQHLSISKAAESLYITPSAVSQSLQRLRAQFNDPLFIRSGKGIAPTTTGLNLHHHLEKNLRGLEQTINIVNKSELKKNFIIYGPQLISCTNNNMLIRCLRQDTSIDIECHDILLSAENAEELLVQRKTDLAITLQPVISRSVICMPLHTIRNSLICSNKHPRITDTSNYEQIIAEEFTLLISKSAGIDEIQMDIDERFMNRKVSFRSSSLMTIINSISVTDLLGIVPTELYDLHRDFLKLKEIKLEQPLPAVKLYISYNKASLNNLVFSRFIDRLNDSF
Put plainly: EMSA. As to conditions: 10 mM Tris pH 7.5, 1 mM EDTA, 100 mM KCl, 0.1 mM DTT, 5% glycerol, 0.01 mg/mL BSA; […].

For “ACATACTCCGTTGTATTGTCTCTTCCATAAATCATTCACTTGATCAATAATGTTGTTGTATTTATATGTATTATGTTTTTCTGCTTAACTTTGGATTAAGATTTTCTAAAATAGCATAGCTGTCAGGTGGGTTACGAGCAATTCATGCGTTTTTAGGATGGTTGAAAAGCAGAGAGAGATTTCAACCATCGATGAATTATATTCTATTTATTCCCCATAATGATATTAAGTGTTTTCTGATCGGGTAATCCGACGGCTTGTTGCAGGGTA (double strand) [PybdO]”, the binding result in data set [1] ([…]) is “binds”.

Turning to “TTTCCTGAGAAATTAACTCTGCATTCTAAAACGGCCAGTTTTCTGAAATTACCAGAAGACCGAATACATTCATGCCTGAAGAATGGATTAGAAGAAACGAGACGGAAATAGATCTATTTATCCCTGCGGAAATAATTTCTGCTGAAATTTTTTTGCGGCTATTAAAAAGGTCAAACCGTCTGAGTAAATTTTATCCAGTTACAAACAAGTATTACCTCCAGTGTATTGGTAGCTGTTAAGCCAAGGGCGGTAGCGTACCTGAAGAGATTAGGATCACATCATCAAATGG (double strand) [PkpsM]”, the binding entry in data set [2] was “binds”.

Turning to “GCGGCCCCAGGCCGAGCCAGTTTACCCGCTCTGAGACCTGCGCCAGCTGGCAGGTCAGGCCAATCCGCGCCGGATGCGGTGTATCGCTTGCCACCGCAACATCCACATTGATGACCATCTCACCGTGCCCATCAATCCGGTAGG (double strand) [lacZ fragment]”, the binding result was “no binding” in data set [1] (20 ng DNA in 20 uL, 25 C, 30 min, native 8% PAGE in 0.5x TBE, GelRed stain) and “no binding” in data set [2].

These data come from paper PMC9141747.
